How the values were obtained:
I52-33B = molecular target: T1, I52-33B; assay: size exclusion chromatography (Superose 6 10/300) of co-expressed, purified pair
T1 construct: also called dimer component of I52-33
T1 chain: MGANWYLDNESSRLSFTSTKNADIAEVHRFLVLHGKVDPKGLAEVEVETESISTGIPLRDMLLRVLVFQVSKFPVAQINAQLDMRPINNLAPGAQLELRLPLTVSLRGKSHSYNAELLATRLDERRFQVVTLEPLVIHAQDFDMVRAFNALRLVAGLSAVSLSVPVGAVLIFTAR

I32-06B = molecular target: T2, I32-06B; assay: negative stain electron microscopy class averages of the assembled nanostructure
T2 construct: also called trimer component of I32-06
T2 sequence (chain, as listed by the source): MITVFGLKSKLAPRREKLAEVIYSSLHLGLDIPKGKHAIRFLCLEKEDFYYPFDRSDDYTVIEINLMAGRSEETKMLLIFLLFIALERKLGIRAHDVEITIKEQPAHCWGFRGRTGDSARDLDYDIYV

Row | Binder | binding result (I52-33B) | binding result (I32-06B)
1 | I52-33A (designed binder, also called pentamer component of I52-33) MAVKGLGEVDQKYDGSKLRIGILHARWNRKIILALVAGAVLRLLEFGVKAENIIIETVPGSFELPYGSKLFVEKQKRLGKPLDAIIPIGVLIKGSTMHFEYICDSTTHQLMKLNFELGIPVIFGVLTCLTDEQAEARAGLIEGKMHNHGEDWGAAAVEMATKFN | binds | 
2 | I32-06A (designed binder, also called dimer component of I32-06) MTDYIRDGSAIKALSFAIILAEADLRHIPQDLQRLAVRVIHACGMVDVANDLAFSEGAGKAGRNALLAGAPILCDARMVAEGITRSRLPADNRVIYTLSDPSVPELAKKIGNTRSAAALDLWLPHIEGSIVAIGNAPTALFRLFELLDAGAPKPALIIGMPVGFVGAAESKDELAANSRGVPYVIVRGRRGGSAMTAAAVNALASERE |  | binds

— patent US20190284242A1 (University of Washington, published 2019)
